From paper PMC3206013, “Unique Interplay between Sugar and Lipid in Determining the Antigenic Potency of Bacterial Antigens for NKT Cells” (PLoS Biology, 2011) come the findings set out here.

One may read the Kd as the constant that tells how readily two partners part at equilibrium. Higher therefore signals a looser complex.

The target in this experiment is biotinylated mouse CD1d/β2m, wild type, loaded with α-GalCer (mouse) (UniProt P11609). Description: SPR; α-GalCer loaded.

“Vα14Vβ8.2 iNKT TCR (mouse invariant NKT cell T cell receptor)” came in with a Kd of 39.9 nM.
